Earlier results as cited in patent US20250312434A1, “LIPOPOLYSACCHARIDE (LPS) DEFICIENT ACINETOBACTER BAUMANNII M[…]” (VAXDYN S.L., priority 2021, published 2025).

Assays:
[1] = test system: P. aeruginosa; settings: 4 intraperitoneal doses of 50 μg
[2] = test system: P. aeruginosa strain PAK; settings: Balb/c female mice, 4 subcutaneous doses of 50ug; intranasal PAK
[3] = test system: P. aeruginosa strain PAO1; settings: Balb/c female mice, 4 subcutaneous doses of 50ug; intranasal PAO1
[4] = test system: P. aeruginosa; settings: 2 intraperitoneal doses of 10 ug

For “purified OprI: P. aeruginosa outer membrane lipoprotein OprI, purified”, the “LD50 in immunized versus not immunized animals” value [1] is given as “up to 35 fold”.

B1: rOprF: recombinant full-length OprF from P. aeruginosa expressed in Escherichia coli (protein, UniProt P13794 1-350, looked up)
chain: MKLKNTLGVVIGSLVAASAMNAFAQGQNSVEIEAFGKRYFTDSVRNMKNADLYGGSIGYFLTDDVELALSYGEYHDVRGTYETGNKKVHGNLTSLDAIYHFGTPGVGLRPYVSAGLAHQNITNINSDSQGRQQMTMANIGAGLKYYFTENFFAKASLDGQYGLEKRDNGHQGEWMAGLGVGFNFGGSKAAPAPEPVADVCSDSDNDGVCDNVDKCPDTPANVTVDANGCPAVAEVVRVQLDVKFDFDKSKVKENSYADIKNLADFMKQYPSTSTTVEGHTDSVGTDAYNQKLSERRANAVRDVLVNEYGVEGGRVNAVGYGESRPVADNATAEGRAINRRVEAEVEAEAK
modifications: full-length
notes: recombinant full-length OprF from P. aeruginosa expressed in Escherichia coli
In the case of B1, the “survival at 7 days” value [2] is given as 60% and the “survival at 7 days” value [3] is given as 50%.

B2: purified OprF: purified OprF from P. aeruginosa PAO1 (protein, UniProt P13794 25-350, looked up)
Outer membrane porin F: QGQNSVEIEAFGKRYFTDSVRNMKNADLYGGSIGYFLTDDVELALSYGEYHDVRGTYETGNKKVHGNLTSLDAIYHFGTPGVGLRPYVSAGLAHQNITNINSDSQGRQQMTMANIGAGLKYYFTENFFAKASLDGQYGLEKRDNGHQGEWMAGLGVGFNFGGSKAAPAPEPVADVCSDSDNDGVCDNVDKCPDTPANVTVDANGCPAVAEVVRVQLDVKFDFDKSKVKENSYADIKNLADFMKQYPSTSTTVEGHTDSVGTDAYNQKLSERRANAVRDVLVNEYGVEGGRVNAVGYGESRPVADNATAEGRAINRRVEAEVEAEAK
In the case of B2, the protection [4] is given as “up to 67%”.
